The target of assay [1] is native VEGFR-1 expressed on the cell surface (human, UniProt P17948 27-1338). Description: cell-based or functional assay.
The target of assay [2] is T1, soluble recombinant human VEGFR-1 alkaline phosphatase (human, UniProt P17948 27-758).
T1 construct: Made in house in stably transfected cells; also called rhuVEGFR-I AP; VEGFR-I AP; not shown: alkaline phosphatase fusion partner
Description: blocking ELISA: antibody preincubated with VEGFR-1 AP, binding to VEGF coated plate. The procedure:
Specifically, hybridoma supernatants or purified antibodies were diluted in PBS with 5% FBS and 0.05% Tween 20 (ELISA buffer) and incubated in rhuVEGFR-I AP or AP coated 96-well microtiter plates for 30 minutes. Plates were washed with the ELISA buffer and incubated with goat anti-mouse IgG-horseradish peroxidase (HRP) conjugate (BioSource International, Camarillo, Calif.) for 30 minutes. TMB (3,3′,5,5′-tetra-methylbenzidine) substrate (Kierkegaard and Perry Lab, Inc., Gaithersburg, Md.) was used for color development following the manufacturer's instruction. The absorbance at 450 nanometers (nm) was read for quantification of binding activity of antibodies. For identification of the hybridomas producing anti-VEGFR-I antibodies, hybridoma supernatants were preincubated with VEGFR-I AP for 1 hour. The mixtures were incubated with the ELISA buffer in VEGF or P1GF coated 96-well microtiter plates for 1 hour. PNPP (p-nitrophenyl phosphate) substrate for AP was used for color development following the manufacturer's instruction. The absorbance at 405 nm was read for quantification of VEGFR-I binding to VEGF or P1GF. Optical density (OD) values were read on a microtiter plate reader (Molecular Devices Corp., Sunnyvale, Calif.). ED50 and IC50 of the antibodies were analyzed using GraphPad Prism 3 software (GraphPad Software, Inc., San Diego, Calif.).
In general terms: An ELISA detects its analyte on a solid surface through an enzyme-linked reagent.

Assay [3] addresses T2, mouse VEGFR-1-AP (mouse, UniProt P35969 23-759).
T2 construct: From ImClone Systems; also called mouse VEGFR-I-AP; not shown: alkaline phosphatase fusion partner; not described
T2 sequence (looked up): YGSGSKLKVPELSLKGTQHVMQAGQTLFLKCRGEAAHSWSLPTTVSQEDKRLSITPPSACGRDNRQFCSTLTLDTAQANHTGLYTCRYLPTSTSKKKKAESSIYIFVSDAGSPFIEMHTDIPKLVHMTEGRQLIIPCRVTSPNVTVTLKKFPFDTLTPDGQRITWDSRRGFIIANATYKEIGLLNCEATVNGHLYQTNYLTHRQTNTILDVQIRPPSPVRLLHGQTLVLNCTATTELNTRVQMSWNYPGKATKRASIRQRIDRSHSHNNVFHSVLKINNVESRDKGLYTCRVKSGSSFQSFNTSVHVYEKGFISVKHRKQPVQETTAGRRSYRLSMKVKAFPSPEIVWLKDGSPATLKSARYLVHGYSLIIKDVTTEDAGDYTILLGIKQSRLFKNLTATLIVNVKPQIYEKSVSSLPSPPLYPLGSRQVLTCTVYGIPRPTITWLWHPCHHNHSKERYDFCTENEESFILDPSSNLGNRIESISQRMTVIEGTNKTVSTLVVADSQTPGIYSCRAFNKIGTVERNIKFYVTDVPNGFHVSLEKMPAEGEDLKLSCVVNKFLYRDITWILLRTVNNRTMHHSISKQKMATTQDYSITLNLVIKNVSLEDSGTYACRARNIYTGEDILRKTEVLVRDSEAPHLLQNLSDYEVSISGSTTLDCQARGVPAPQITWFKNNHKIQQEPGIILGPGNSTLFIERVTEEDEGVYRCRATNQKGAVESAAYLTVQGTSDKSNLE
Description: ELISA: plate coated with mouse VEGFR-1-AP 100 ng/well, goat anti-human kappa-HRP, O.D. 450.

Assay [4] has as its target T3, mouse VEGFR-1 Fc (mouse, UniProt P35969 23-759, limits assumed).
T3 construct: not shown: Fc part; not described
T3 sequence (looked up): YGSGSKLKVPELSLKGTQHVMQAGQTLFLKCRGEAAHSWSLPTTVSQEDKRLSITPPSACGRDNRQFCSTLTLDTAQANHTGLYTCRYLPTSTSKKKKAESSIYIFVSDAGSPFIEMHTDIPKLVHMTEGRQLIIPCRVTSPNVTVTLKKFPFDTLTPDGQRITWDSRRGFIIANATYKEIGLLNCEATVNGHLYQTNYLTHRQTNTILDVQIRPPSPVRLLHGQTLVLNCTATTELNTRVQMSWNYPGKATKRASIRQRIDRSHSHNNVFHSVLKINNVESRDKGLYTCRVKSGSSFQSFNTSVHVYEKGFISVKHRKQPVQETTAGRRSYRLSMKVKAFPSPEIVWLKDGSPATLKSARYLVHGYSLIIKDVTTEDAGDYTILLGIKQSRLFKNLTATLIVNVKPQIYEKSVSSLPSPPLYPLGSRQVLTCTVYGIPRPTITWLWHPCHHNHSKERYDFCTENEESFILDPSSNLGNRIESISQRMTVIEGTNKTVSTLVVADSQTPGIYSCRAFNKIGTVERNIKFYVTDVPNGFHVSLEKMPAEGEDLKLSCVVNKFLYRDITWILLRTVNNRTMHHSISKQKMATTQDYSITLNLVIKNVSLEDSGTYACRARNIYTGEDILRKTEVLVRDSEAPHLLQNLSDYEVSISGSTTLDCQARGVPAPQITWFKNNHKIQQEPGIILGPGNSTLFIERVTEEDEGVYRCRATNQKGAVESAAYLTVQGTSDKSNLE
Description: ELISA: antibody dilutions on plate coated with 1 µg/ml mouse VEGFR-1 Fc, HRP secondary, O.D. 450. How it is done:
To determine the specificity of an anti-VEGFR-1 monoclonal antibody to human VEGFR-I, purified antibodies 18F1 were tested in an ELISA-based assay. One μg/ml of recombinant human VEGFR-I Fc, mouse VEGFR-I Fc, mouse VEGFR-2 Fc, or human VEGFR-2 alkaline phosphatase was coated with PBS in a 96-well microtiter plates at 4° C. over night. After wash, the receptor coated plates were blocked with PBS containing 5% Dry Milk and 0.05% Tween 20. Serial dilutions of primary antibody 18F1 to human VEGFR-I, MF1 to mouse VEGFR-I, IC1 1 to human VEGFR-2, or DClOl to mouse VEGFR-2 were incubated in the receptor-coated plates for 30 minutes. After wash secondary anti-primary HRP conjugate antibodies was incubated in the plates for 30 minutes. Plates were washed and incubated with the substrate TMB (3,3′,5,5′-tetra-methylbenzidine) for color development. The absorbance at 450 nm was read as OD values for quantification of binding activity of antibodies. Data were analyzed using a GraphPad Prism Software.

T1 sequence (P17948 27-758): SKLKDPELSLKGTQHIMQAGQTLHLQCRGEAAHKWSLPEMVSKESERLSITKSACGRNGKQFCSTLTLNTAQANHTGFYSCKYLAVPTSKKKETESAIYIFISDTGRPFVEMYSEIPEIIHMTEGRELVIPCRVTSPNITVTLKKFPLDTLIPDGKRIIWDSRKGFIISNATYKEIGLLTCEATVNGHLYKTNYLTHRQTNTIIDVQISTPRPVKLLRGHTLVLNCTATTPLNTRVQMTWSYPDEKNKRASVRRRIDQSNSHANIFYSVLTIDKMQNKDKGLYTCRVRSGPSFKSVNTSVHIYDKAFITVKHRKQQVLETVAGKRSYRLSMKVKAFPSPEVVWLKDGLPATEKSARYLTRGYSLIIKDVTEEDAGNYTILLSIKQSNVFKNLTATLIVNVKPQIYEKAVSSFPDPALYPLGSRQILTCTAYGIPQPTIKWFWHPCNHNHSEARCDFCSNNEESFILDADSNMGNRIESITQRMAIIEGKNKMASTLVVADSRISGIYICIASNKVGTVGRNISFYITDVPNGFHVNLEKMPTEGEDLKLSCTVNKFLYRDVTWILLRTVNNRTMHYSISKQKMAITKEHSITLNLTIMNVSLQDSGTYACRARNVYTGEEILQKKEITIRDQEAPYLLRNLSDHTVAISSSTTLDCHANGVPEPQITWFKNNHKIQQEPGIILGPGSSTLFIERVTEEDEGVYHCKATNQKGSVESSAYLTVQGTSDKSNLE
Chain of native VEGFR-1 expressed on the cell surface (P17948 27-1338): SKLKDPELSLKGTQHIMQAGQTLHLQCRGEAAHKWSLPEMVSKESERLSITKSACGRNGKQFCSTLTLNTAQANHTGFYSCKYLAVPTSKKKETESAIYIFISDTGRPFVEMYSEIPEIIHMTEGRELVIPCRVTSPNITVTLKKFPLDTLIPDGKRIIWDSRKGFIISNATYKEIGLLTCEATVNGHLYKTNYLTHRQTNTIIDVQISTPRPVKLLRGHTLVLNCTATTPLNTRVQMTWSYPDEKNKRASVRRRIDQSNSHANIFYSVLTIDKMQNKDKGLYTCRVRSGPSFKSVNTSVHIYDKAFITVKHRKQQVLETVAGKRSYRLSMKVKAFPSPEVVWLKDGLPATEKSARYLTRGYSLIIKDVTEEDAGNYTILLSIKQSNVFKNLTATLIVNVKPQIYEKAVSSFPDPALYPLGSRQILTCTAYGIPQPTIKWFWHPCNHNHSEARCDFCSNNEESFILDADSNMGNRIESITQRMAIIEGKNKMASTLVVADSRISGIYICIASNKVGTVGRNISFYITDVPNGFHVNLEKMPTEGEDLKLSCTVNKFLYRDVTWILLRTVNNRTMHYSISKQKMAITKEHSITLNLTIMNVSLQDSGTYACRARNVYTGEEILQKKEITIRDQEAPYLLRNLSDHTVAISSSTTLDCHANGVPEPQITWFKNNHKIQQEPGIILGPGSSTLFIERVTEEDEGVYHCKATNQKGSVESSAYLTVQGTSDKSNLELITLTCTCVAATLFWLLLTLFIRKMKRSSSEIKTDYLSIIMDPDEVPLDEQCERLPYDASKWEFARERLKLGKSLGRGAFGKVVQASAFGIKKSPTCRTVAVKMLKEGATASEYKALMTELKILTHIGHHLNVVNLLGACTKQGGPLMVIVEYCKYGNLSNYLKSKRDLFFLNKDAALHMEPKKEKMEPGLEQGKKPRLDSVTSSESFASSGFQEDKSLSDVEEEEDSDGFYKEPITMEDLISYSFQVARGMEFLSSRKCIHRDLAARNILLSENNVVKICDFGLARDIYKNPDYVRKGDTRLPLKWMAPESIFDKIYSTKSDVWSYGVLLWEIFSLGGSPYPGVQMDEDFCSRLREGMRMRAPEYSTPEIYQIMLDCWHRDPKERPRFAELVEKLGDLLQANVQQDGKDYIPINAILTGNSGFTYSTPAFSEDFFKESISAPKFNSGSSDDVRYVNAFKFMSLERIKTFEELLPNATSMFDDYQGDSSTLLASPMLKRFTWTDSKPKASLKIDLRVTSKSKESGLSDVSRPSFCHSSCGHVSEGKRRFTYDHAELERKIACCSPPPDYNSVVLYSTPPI

B1: anti-human VEGFR-1 antibody 18F1 (antibody, V domains shown)
VH: QAQVVESGGGVVQSGRSLRLSCAASGFAFSSYGMHWVRQAPGKGLEWVAVIWYDGSNKYYADSVRGRFTISRDNSENTLYLQMNSLRAEDTAVYYCARDHYGSGVHHYFYYGLDVWGQGTTVTVSS
VL: not shown
notes: Fully human antibody (gamma heavy chain, kappa light chain) from hybridomas of KM transgenic mice, purified; The light chain entry runs a few residues into the kappa constant region; also called MC-18F1; IMC-18F1
By IC50 is commonly meant the concentration at which inhibition is half-maximal. Regarding B1, the “Inhibition of PlGF-induced DU4475 cell growth in vitro (IC50)” value in assay [1] turned out to be 24 nM. Besides, the IC50 in assay [2] is 0.84 nM. The binding result was “no binding (tested: 1 µg/mL)” in assay [3] and “no binding (tested: 1 µg/ml)” in assay [4].
